{"source": "the Human Domainome abundance scans (Beltran et al. 2025)", "note": "± gives the uncertainty stated by the source.", "data": [{"assay": "abundance fitness (aPCA) (normalised: wild type 0, dead -1); higher = more abundant; growth selection in yeast, the domain comes from the species named", "details": "Homo sapiens", "values": [{"substance": "Scaffold attachment factor B1 E76Q, Q15424", "abundance fitness": "-0.415 ± 0.088"}, {"substance": "Scaffold attachment factor B1 E76R, Q15424", "abundance fitness": "-0.055 ± 0.054"}, {"substance": "Scaffold attachment factor B1 E76T, Q15424", "abundance fitness": "-0.195 ± 0.073"}, {"substance": "Scaffold attachment factor B1 E76V, Q15424", "abundance fitness": "-0.044 ± 0.049"}, {"substance": "Scaffold attachment factor B1 E76W, Q15424", "abundance fitness": "-0.305 ± 0.07"}, {"substance": "Scaffold attachment factor B1 E76Y, Q15424", "abundance fitness": "-0.175 ± 0.056"}, {"substance": "Scaffold attachment factor B1 E80A, Q15424", "abundance fitness": "-0.055 ± 0.051"}, {"substance": "Scaffold attachment factor B1 E80D, Q15424", "abundance fitness": "-0.323 ± 0.14"}, {"substance": "Scaffold attachment factor B1 E80G, Q15424", "abundance fitness": "-0.151 ± 0.085"}, {"substance": "Scaffold attachment factor B1 E80K, Q15424", "abundance fitness": "-0.889 ± 0.25"}, {"substance": "Scaffold attachment factor B1 E80M, Q15424", "abundance fitness": "-0.361 ± 0.19"}, {"substance": "Scaffold attachment factor B1 E80N, Q15424", "abundance fitness": "-0.513 ± 0.43"}, {"substance": "Scaffold attachment factor B1 E80Q, Q15424", "abundance fitness": "-0.274 ± 0.1"}, {"substance": "Scaffold attachment factor B1 E80R, Q15424", "abundance fitness": "-0.443 ± 0.092"}, {"substance": "Scaffold attachment factor B1 E80T, Q15424", "abundance fitness": "-0.675 ± 0.2"}, {"substance": "Scaffold attachment factor B1 E80V, Q15424", "abundance fitness": "-0.223 ± 0.059"}, {"substance": "Scaffold attachment factor B1 E80W, Q15424", "abundance fitness": "-0.409 ± 0.15"}, {"substance": "Scaffold attachment factor B1 G27A, Q15424", "abundance fitness": "-0.257 ± 0.061"}, {"substance": "Scaffold attachment factor B1 G27D, Q15424", "abundance fitness": "-0.027 ± 0.08"}, {"substance": "Scaffold attachment factor B1 G27E, Q15424", "abundance fitness": "-0.068 ± 0.062"}, {"substance": "Scaffold attachment factor B1 G27F, Q15424", "abundance fitness": "-0.246 ± 0.12"}, {"substance": "Scaffold attachment factor B1 G27H, Q15424", "abundance fitness": "-0.692 ± 0.14"}, {"substance": "Scaffold attachment factor B1 G27I, Q15424", "abundance fitness": "-0.03 ± 0.079"}, {"substance": "Scaffold attachment factor B1 G27K, Q15424", "abundance fitness": "-0.204 ± 0.1"}, {"substance": "Scaffold attachment factor B1 G27L, Q15424", "abundance fitness": "-0.191 ± 0.057"}, {"substance": "Scaffold attachment factor B1 G27M, Q15424", "abundance fitness": "-0.09 ± 0.11"}, {"substance": "Scaffold attachment factor B1 G27N, Q15424", "abundance fitness": "-0.187 ± 0.12"}, {"substance": "Scaffold attachment factor B1 G27P, Q15424", "abundance fitness": "-0.519 ± 0.11"}, {"substance": "Scaffold attachment factor B1 G27Q, Q15424", "abundance fitness": "-0.334 ± 0.08"}, {"substance": "Scaffold attachment factor B1 G27R, Q15424", "abundance fitness": "-0.327 ± 0.052"}, {"substance": "Scaffold attachment factor B1 G27S, Q15424", "abundance fitness": "-0.092 ± 0.07"}, {"substance": "Scaffold attachment factor B1 G27V, Q15424", "abundance fitness": "-0.1 ± 0.048"}, {"substance": "Scaffold attachment factor B1 G27W, Q15424", "abundance fitness": "-0.559 ± 0.057"}, {"substance": "Scaffold attachment factor B1 G27Y, Q15424", "abundance fitness": "-0.088 ± 0.12"}, {"substance": "Scaffold attachment factor B1 G52A, Q15424", "abundance fitness": "-0.538 ± 0.069"}, {"substance": "Scaffold attachment factor B1 G52C, Q15424", "abundance fitness": "-0.931 ± 0.082"}, {"substance": "Scaffold attachment factor B1 G52D, Q15424", "abundance fitness": "-0.691 ± 0.084"}, {"substance": "Scaffold attachment factor B1 G52E, Q15424", "abundance fitness": "-0.727 ± 0.079"}, {"substance": "Scaffold attachment factor B1 G52F, Q15424", "abundance fitness": "-1.25 ± 0.11"}, {"substance": "Scaffold attachment factor B1 G52H, Q15424", "abundance fitness": "-1.02 ± 0.15"}, {"substance": "Scaffold attachment factor B1 G52I, Q15424", "abundance fitness": "-1.72 ± 0.32"}, {"substance": "Scaffold attachment factor B1 G52K, Q15424", "abundance fitness": "-1.35 ± 0.18"}, {"substance": "Scaffold attachment factor B1 G52L, Q15424", "abundance fitness": "-1.34 ± 0.086"}, {"substance": "Scaffold attachment factor B1 G52M, Q15424", "abundance fitness": "-1.21 ± 0.077"}, {"substance": "Scaffold attachment factor B1 G52N, Q15424", "abundance fitness": "-1.45 ± 0.23"}, {"substance": "Scaffold attachment factor B1 G52P, Q15424", "abundance fitness": "-0.916 ± 0.079"}, {"substance": "Scaffold attachment factor B1 G52Q, Q15424", "abundance fitness": "-0.781 ± 0.066"}, {"substance": "Scaffold attachment factor B1 G52R, Q15424", "abundance fitness": "-1.18 ± 0.054"}, {"substance": "Scaffold attachment factor B1 G52S, Q15424", "abundance fitness": "-0.786 ± 0.057"}, {"substance": "Scaffold attachment factor B1 G52T, Q15424", "abundance fitness": "-0.939 ± 0.078"}, {"substance": "Scaffold attachment factor B1 G52V, Q15424", "abundance fitness": "-0.978 ± 0.059"}, {"substance": "Scaffold attachment factor B1 G52W, Q15424", "abundance fitness": "-1.2 ± 0.073"}, {"substance": "Scaffold attachment factor B1 G52Y, Q15424", "abundance fitness": "-1.15 ± 0.11"}, {"substance": "Scaffold attachment factor B1 G69C, Q15424", "abundance fitness": "-0.431 ± 0.093"}, {"substance": "Scaffold attachment factor B1 G69D, Q15424", "abundance fitness": "-0.422 ± 0.17"}, {"substance": "Scaffold attachment factor B1 G69E, Q15424", "abundance fitness": "-0.552 ± 0.086"}, {"substance": "Scaffold attachment factor B1 G69H, Q15424", "abundance fitness": "-0.292 ± 0.11"}, {"substance": "Scaffold attachment factor B1 G69I, Q15424", "abundance fitness": "-0.376 ± 0.084"}, {"substance": "Scaffold attachment factor B1 G69L, Q15424", "abundance fitness": "-0.558 ± 0.049"}, {"substance": "Scaffold attachment factor B1 G69M, Q15424", "abundance fitness": "-0.463 ± 0.096"}, {"substance": "Scaffold attachment factor B1 G69N, Q15424", "abundance fitness": "-0.248 ± 0.099"}, {"substance": "Scaffold attachment factor B1 G69P, Q15424", "abundance fitness": "-0.419 ± 0.083"}, {"substance": "Scaffold attachment factor B1 G69R, Q15424", "abundance fitness": "-0.25 ± 0.06"}, {"substance": "Scaffold attachment factor B1 G69S, Q15424", "abundance fitness": "-0.397 ± 0.071"}, {"substance": "Scaffold attachment factor B1 G69T, Q15424", "abundance fitness": "-0.472 ± 0.077"}, {"substance": "Scaffold attachment factor B1 G69V, Q15424", "abundance fitness": "-0.454 ± 0.079"}, {"substance": "Scaffold attachment factor B1 G69W, Q15424", "abundance fitness": "-0.658 ± 0.067"}, {"substance": "Scaffold attachment factor B1 G69Y, Q15424", "abundance fitness": "-0.819 ± 0.19"}, {"substance": "Scaffold attachment factor B1 G70A, Q15424", "abundance fitness": "-0.278 ± 0.061"}, {"substance": "Scaffold attachment factor B1 G70C, Q15424", "abundance fitness": "-0.259 ± 0.058"}, {"substance": "Scaffold attachment factor B1 G70D, Q15424", "abundance fitness": "-0.354 ± 0.097"}, {"substance": "Scaffold attachment factor B1 G70E, Q15424", "abundance fitness": "-0.244 ± 0.072"}, {"substance": "Scaffold attachment factor B1 G70F, Q15424", "abundance fitness": "-0.406 ± 0.083"}, {"substance": "Scaffold attachment factor B1 G70H, Q15424", "abundance fitness": "-0.467 ± 0.083"}, {"substance": "Scaffold attachment factor B1 G70K, Q15424", "abundance fitness": "-0.207 ± 0.081"}, {"substance": "Scaffold attachment factor B1 G70L, Q15424", "abundance fitness": "-0.22 ± 0.051"}, {"substance": "Scaffold attachment factor B1 G70M, Q15424", "abundance fitness": "-0.307 ± 0.064"}, {"substance": "Scaffold attachment factor B1 G70N, Q15424", "abundance fitness": "-0.511 ± 0.13"}, {"substance": "Scaffold attachment factor B1 G70Q, Q15424", "abundance fitness": "-0.205 ± 0.068"}]}]}
